EC50 data for one molecule are collected here from US20230025732A1 (INNATE PHARMA, published 2023).

The target in assay [1] is T1, human CD39 expressed at the cell surface (human, UniProt P49961 1-510).
T1 construct: On CHO transfectants, Hek-293T transfectants, Ramos and Mino tumor cells; also called huCD39; CHO-huCD39
T1 sequence: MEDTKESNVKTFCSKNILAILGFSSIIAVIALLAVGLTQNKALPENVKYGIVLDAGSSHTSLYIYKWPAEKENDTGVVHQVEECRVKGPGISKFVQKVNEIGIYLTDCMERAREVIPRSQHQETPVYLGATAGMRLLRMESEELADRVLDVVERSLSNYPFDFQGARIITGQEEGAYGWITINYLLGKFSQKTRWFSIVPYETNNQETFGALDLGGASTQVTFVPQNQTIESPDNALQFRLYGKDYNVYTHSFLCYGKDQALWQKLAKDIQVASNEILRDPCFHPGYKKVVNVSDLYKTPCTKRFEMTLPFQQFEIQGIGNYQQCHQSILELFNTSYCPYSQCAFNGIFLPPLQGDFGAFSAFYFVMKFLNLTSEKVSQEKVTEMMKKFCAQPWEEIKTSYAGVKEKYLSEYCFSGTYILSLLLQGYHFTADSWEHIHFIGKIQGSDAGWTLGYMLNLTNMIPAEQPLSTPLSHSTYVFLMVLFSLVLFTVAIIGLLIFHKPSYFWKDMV
The experiment in a line: flow cytometry, Ramos lymphoma cells, first set of experiments; Ramos cells, first set of experiments. Here is the method: (§1) Cells were incubated with various concentration of unlabeled anti-CD39 antibody from 30 μg/ml to 5×10⁻⁴ μg/ml, for 30 minutes at 4° C. After washes, cells were incubated with Goat anti-mouse H+L labeled secondary antibody for 30 min at 4° C.

The target in assay [2] is T1, human CD39 expressed at the cell surface. Briefly: flow cytometry, Ramos lymphoma cells, second set of experiments; Ramos cells, second set of experiments. Here is the method:
as §1

B1: I-394 (antibody, human IgG1, V domains shown)
VH: EVQLQQSGPELVKPGASVKMSCKASGYTFTDYNMHWVKQSHGRTLEWIGYIVPLNGGSTFNQKFKGRATLTVNTSSRTAYMELRSLTSEDSAAYYCARGGTRFAYWGQGTLVTVSA
VL: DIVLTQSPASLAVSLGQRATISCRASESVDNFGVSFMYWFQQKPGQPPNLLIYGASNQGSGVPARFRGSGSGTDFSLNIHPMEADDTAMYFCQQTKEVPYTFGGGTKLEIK
As to B1, the EC50 in assay [1] was found to be 0.16 µg/mL; in assay [2] it was 0.19 µg/mL.
